Among the data in PMC12835398 are cellular uptake: DOX fluorescence (MFI per cell) of ES-2 cells by flow cytometry after 1 h and cytotoxicity on ES-2 cells, MTT assay, 24 h; IC50 as DOX concentration; LNP-DOX without peptide 10.16 µM, free DOX 0.6 µM values, retold here.

The target of assay [1] is coagulation factor II thrombin receptor/protease activated receptor 1 (F2R/PAR1) (human (endogenous in ES-2)) (UniProt P25116).
Assay [2] has the same target. The source holds these as a separate data set.

Where no end group is shown, it is not given here.

Chain of UniProt P25116 (P25116 42-425): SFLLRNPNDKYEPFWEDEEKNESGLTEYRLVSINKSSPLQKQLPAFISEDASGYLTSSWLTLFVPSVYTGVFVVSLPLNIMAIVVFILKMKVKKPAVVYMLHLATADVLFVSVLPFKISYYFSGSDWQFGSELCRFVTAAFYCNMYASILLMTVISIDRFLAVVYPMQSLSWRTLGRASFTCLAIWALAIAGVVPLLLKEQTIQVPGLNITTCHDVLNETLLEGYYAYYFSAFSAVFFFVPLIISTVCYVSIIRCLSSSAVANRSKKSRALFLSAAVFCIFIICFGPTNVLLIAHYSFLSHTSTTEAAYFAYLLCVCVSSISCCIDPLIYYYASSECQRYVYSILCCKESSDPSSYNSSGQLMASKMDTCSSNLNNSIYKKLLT

The molecule TFLLRGSGSGSC(DSPE‑PEG2000‑maleimide) (also: on doxorubicin-loaded lipid nanoparticles) [… conjugated to DSPE-PEG-maleimide, on doxorubicin-loaded lipid nanoparticles (LNP-Peptide-DOX)] displayed a cellular uptake: DOX fluorescence (MFI per cell) of ES-2 cells by flow cytometry after 1 h at 37 °C, about 86 µM drug; LNP-DOX without peptide approximately 2000 in assay [1] of 6000 MFI. In assay [2], the cytotoxicity on ES-2 cells, MTT assay, 24 h; IC50 as DOX concentration; LNP-DOX without peptide 10.16 µM, free DOX 0.6 µM is 1.26 µM.
